Results on 1 protein are retold here after patent publication US20190161525A1 (NATIONAL CHENG KUNG UNIVERSITY, published 2019).

This data set concerns the molecule itself. The experiment in a line: self-polymerization in PBS, reducing SDS-PAGE and Western blot. For orientation: In western blotting, separated proteins are transferred to a membrane and probed.

B1: Zfra1-31 (full-length zinc finger-like protein that regulates apoptosis, synthetic peptide) (peptide)
peptide: MSSRRSSSCKYCEQDFRAHTQKNAATPFLAN
notes: also called Zfra peptide; full-length Zfra
On to B1, for which the binding result is “binds”.
